According to patent US20160304573A1, “FIBROMODULIN PEPTIDE” (The Regents of the University of California, priority 2010, published 2016):

How the values were obtained:
Rat-2 cells [1] = test: Rat-2 cell migration/invasion in Matrigel, DAPI nuclear staining; format: cell-based
Description: Cell migration/invasion in Matrigel was documented at 200× magnificent after 24 hour treatment and quantitated using DAPI nuclear staining (results shown in FIG. 19A and repeat results in FIGS. 26B and 26C; DAPI pictures are shown in FIG. 19D).
(§1) Similar to FMOD (whole protein), the effect of FMOD peptides and/or TGF-β on cell migration was also evaluated by scratching method (FIGS. 18C and 25D). At the same time, cell migration/invasion in Matrigel was documented at 100× magnificent after 24 hour treatment and quantitated using DAPI nuclear staining (100 rather than 200× magnification was used because one group's invasion is quite low) (see the results in FIG. 20A and DAPI pictures in FIG. 20B). Passage 18 Rat-2 cells (20,000 cells/well) were used for the test under the treatment of 100 pM TGF-β1 (SEQ ID NO:64)/133 (SEQ ID NO:66) with/without 200 nM FMOD-F07-40C in DMEM-0.5% FBS.
Passage 18 Rat-2 cells (20,000 cells/well) were used for the test under the treatment of 100 pM TGF-β1/β3 with/without 200 nM FMOD-F06-40C in DMEM-0.5% FBS (FIG. 20C).

Rat-2 cells [2] = test: Rat-2 cell migration by scratching method; format: cell-based
Description: 1×10^6 cell/well Rat-2 cells were seeded in 6-well plated with 3 ml DMEM-10% FBS. After 6 hours for adhesion, fresh DMEM-0.5% FBS medium was changed for serum-starving overnight. After pre-warmed DMEM rinsing, four wounds (each 1 mm wide; two horizontal and two vertical) were scratched employing a 1-ml tip for each treatment group. Cells were rinsed by DMEM for three times, followed by incubation with treatment medium [DMEM-0.5 FBS containing 100 pM (2.5 ng/ml) TGF-β1 (SEQ ID NO:64) or -β3 (SEQ ID NO:66) w/o 200 nM (11.2 μg/ml) FMOD (SEQ ID NO:1)] for 24 hours. Photos were captured at both 0-h and 24-h after the scratching. The unclosed distance was measured and quantified as an average gap (A) and migration index (B). Similar results were reproduced in four independent experiments. The scale bar in (A) equal to 100 The asterisks in (B) present P<0.05.
as §1

B1: FMOD: recombinant human fibromodulin whole protein (SEQ ID NO:1) produced in CHO-K1 (protein, listed as Homo sapiens)
chain: MQWTSLLLLAGLFSLSQAQYEDDPHWWFHYLRSQQSTYYDPYDPYPYETYEPYPYGVDEGPAYTYGSPSPPDPRDCPQECDCPPNFPTAMYCDNRNLKYLPFVPSRMKYVYFQNNQITSIQEGVFDNATGLLWIALHGNQITSDKVGRKVFSKLRHLERLYLDHNNLTRMPGPLPRSLRELHLDHNQISRVPNNALEGLENLTALYLQHNEIQEVGSSMRGLRSLILLDLSYNHLRKVPDGLPSALEQLYMEHNNVYTVPDSYFRGAPKLLYVRLSHNSLTNNGLASNTFNSSSLLELDLSYNQLQKIPPVNTNLENLYLQGNRINEFSISSFCTVVDVVNFSKLQVLRLDGNEIKRSAMPADAPLCLRLASLIEI
Question: With B1 as the molecule, how does the “cell migration/invasion in Matrigel” value (Rat-2 cells [1]; 200 nM combined with 100 pM TGF-β1, 24 hour treatment) read?
Answer: induced significant migration

Question: And the “cell migration/invasion in Matrigel” value (Rat-2 cells [1]; 200 nM combined with 100 pM TGF-β3, 24 hour treatment)?
Answer: decreased TGF-β3 mediated inhibition of migration

Question: What about the “cell migration/invasion in Matrigel” value (Rat-2 cells [1]; alone (200 nM FMOD or peptide, or 100 pM TGF-β), 24 hour treatment) of the same molecule?
Answer: induced Rat-2 moderate migration

Question: What about the “cell migration, scratch” value (Rat-2 cells [2]; 200 nM combined with 100 pM TGF-β1, 24 hours) of the same molecule?
Answer: induced significant migration

Question: And the “cell migration, scratch” value (Rat-2 cells [2]; 200 nM combined with 100 pM TGF-β3, 24 hours)?
Answer: decreased TGF-β3 mediated inhibition of migration

Question: What about the “cell migration, scratch” value (Rat-2 cells [2]; alone (200 nM FMOD or 100 pM TGF-β), 24 hours) of the same molecule?
Answer: induced Rat-2 minimal migration
